A short description of this data set: self-splicing fitness, log relative to wild type (ln ratio); higher = more splicing; Tetrahymena group I intron in knt gene, E. coli kanamycin selection, DiMSum; sequences stand for … in CUCUCU…GGAGGGAAAAGUUAUCAGGCAUGCACCUGGUAGCUAGUCUUUAAACCAAUAGAUUGCAUCGGUUUAAAAGGCAAGACCGUCAAAUUGCGGGAAAGGGGUCAACAGCCGUUCAGUACCAAGUCUCAGGGGAAACUUUGAGAUGGCCUUGCAAAGGGUAUGGUAAUAAGCUGACGGACAUGGUCCUAACCACGCAGCCAAGUCCUAAGUCAACAGAUCUUCUGUUGAUAUGGAUGCAGUUCACAGACUAAAUGUCGGUCGGGGAAGAUGUAUUCUUCUCAUAAGAUAUAGUCGGACCUCUCCUUAAUGGGAGCUAGCGGAUGAAGUGAUGCAACACUGGAGCCGCUGGGAACUAAUUUGUAUGCGAAAGUAUAUUGAUUAGUUUUGGAGUACUCGUGGUCG
Summed up: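 Pooled colonies went to amplicon sequencing on an Illumina HiSeq 2500 after six replicate transformations. The plates were LB agar with 100 μg/mL carbenicillin, 50 μM IPTG and 0.2% rhamnose, with or without 25 μg/mL kanamycin, incubated overnight at 37°C or 30°C. The E. coli BL21(DE3) library had all eight P1ex-region intron nucleotides randomised, the intron placed in the knt kanamycin-resistance gene on pET-22b(+). DiMSum fitness is the error-weighted combination of replicate fold changes, kanamycin against none, normalised to wild type.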

± gives the uncertainty stated by the source.

Take CCUUAGCAAUAUUACGAAAG: the “self-splicing fitness (ln)” value reads like this: (30 °C) -1.96 ± 0.11; (37 °C) -1.45 ± 0.089.

GCCUAGCAAUAUUACGCGUA: the “self-splicing fitness (ln)” value by setting is: (30 °C) -1.89 ± 0.13; (37 °C) -0.683 ± 0.12.

Take UUGAAGCAAUAUUACGCCUC: the “self-splicing fitness (ln)” value (37 °C) is -1.63 ± 0.42.

Turning to CUCCAGCAAUAUUACGGGCC, the “self-splicing fitness (ln)” value (30 °C) is -1.01 ± 0.26.

In the case of UUGGAGCAAUAUUACGAUCG, the “self-splicing fitness (ln)” value (30 °C) is -2.53 ± 0.24 and the “self-splicing fitness (ln)” value (37 °C) is -1.66 ± 0.2.

Take UCGAAGCAAUAUUACGCAGU: the “self-splicing fitness (ln)” value runs as follows: (30 °C) -0.00368 ± 0.23; (37 °C) -0.973 ± 0.47.

For the sequence UGCAAGCAAUAUUACGAACA, the “self-splicing fitness (ln)” value by setting is: (30 °C) -1.23 ± 0.094; (37 °C) 0.193 ± 0.13.

Turning to CCGCAGCAAUAUUACGCACA, the “self-splicing fitness (ln)” value runs as follows: (30 °C) -2.51 ± 0.19; (37 °C) -1.48 ± 0.17.

As for UUACAGCAAUAUUACGUUGG, the “self-splicing fitness (ln)” value was -2.6 ± 0.12 (30 °C) and -1.69 ± 0.13 (37 °C).

On to UCAGAGCAAUAUUACGAGUC, for which the “self-splicing fitness (ln)” value runs as follows: (30 °C) -3.39 ± 0.35; (37 °C) -3.09 ± 0.21.

Consider UGUAAGCAAUAUUACGGAGU, for which the “self-splicing fitness (ln)” value is, setting by setting: (30 °C) -2.24 ± 0.22; (37 °C) -1.58 ± 0.33.

Turning to UUCCAGCAAUAUUACGGACU, the “self-splicing fitness (ln)” value is, setting by setting: (30 °C) -2.17 ± 0.14; (37 °C) -0.74 ± 0.15.

AUAGAGCAAUAUUACGGAAU: the “self-splicing fitness (ln)” value was -1.26 ± 0.15 (30 °C) and -1.24 ± 0.18 (37 °C).

As to AAGAAGCAAUAUUACGUGAC, the “self-splicing fitness (ln)” value was -3.34 ± 0.15 (30 °C) and -1.67 ± 0.11 (37 °C).

For CUACAGCAAUAUUACGAUUA, the “self-splicing fitness (ln)” value reads like this: (30 °C) -2.88 ± 0.16; (37 °C) -1.5 ± 0.15.

In the case of GUCUAGCAAUAUUACGCUUC, the “self-splicing fitness (ln)” value runs as follows: (30 °C) -1.25 ± 0.11; (37 °C) -0.47 ± 0.12.

Turning to AUGGAGCAAUAUUACGGCAA, the “self-splicing fitness (ln)” value is -0.0716 ± 0.34 (30 °C) and -3.02 ± 0.47 (37 °C).

As to UACAAGCAAUAUUACGCUCU, the “self-splicing fitness (ln)” value (30 °C) was -1.36 ± 0.087 and the “self-splicing fitness (ln)” value (37 °C) was -0.0585 ± 0.11.

On to GUUUAGCAAUAUUACGCGAA, for which the “self-splicing fitness (ln)” value (30 °C) was -3.53 ± 0.49 and the “self-splicing fitness (ln)” value (37 °C) is -2.01 ± 0.22.

Consider UGACAGCAAUAUUACGGAAG, for which the “self-splicing fitness (ln)” value (30 °C) is -2.29 ± 0.11 and the “self-splicing fitness (ln)” value (37 °C) was -1.19 ± 0.12.

Consider GUUCAGCAAUAUUACGUAAA, for which the “self-splicing fitness (ln)” value is, setting by setting: (30 °C) 0.0969 ± 0.077; (37 °C) 0.494 ± 0.11.

Consider GAAAAGCAAUAUUACGUCAG, for which the “self-splicing fitness (ln)” value was -3.91 ± 0.33 (30 °C) and -1.39 ± 0.19 (37 °C).

For UAGCAGCAAUAUUACGUCUG, the “self-splicing fitness (ln)” value runs as follows: (30 °C) -1.32 ± 0.14; (37 °C) -1.6 ± 0.14.

For AUGAAGCAAUAUUACGCGGG, the “self-splicing fitness (ln)” value was -1.39 ± 0.11 (30 °C) and -0.785 ± 0.14 (37 °C).

For CGACAGCAAUAUUACGAUAU, the “self-splicing fitness (ln)” value by setting is: (30 °C) -2.96 ± 0.14; (37 °C) -2.84 ± 0.12.

With AUGGAGCAAUAUUACGAAGU, the “self-splicing fitness (ln)” value (37 °C) was -1.77 ± 0.36.

Take GUUAAGCAAUAUUACGGGGG: the “self-splicing fitness (ln)” value by setting is: (30 °C) -3.44 ± 0.34; (37 °C) -2.67 ± 0.27.

With CACAAGCAAUAUUACGAGUC, the “self-splicing fitness (ln)” value (30 °C) was -3.71 ± 0.17 and the “self-splicing fitness (ln)” value (37 °C) was -2.26 ± 0.16.

Turning to UCCCAGCAAUAUUACGUCCU, the “self-splicing fitness (ln)” value is, setting by setting: (30 °C) -3.36 ± 0.18; (37 °C) -1.48 ± 0.15.

Turning to AACUAGCAAUAUUACGCUUG, the “self-splicing fitness (ln)” value (30 °C) was -2.18 ± 0.11 and the “self-splicing fitness (ln)” value (37 °C) is -1.16 ± 0.12.

For the sequence GGUGAGCAAUAUUACGUAGG, the “self-splicing fitness (ln)” value was -3.15 ± 0.27 (30 °C) and -2.07 ± 0.32 (37 °C).

GCAUAGCAAUAUUACGUGCU: the “self-splicing fitness (ln)” value (30 °C) was -3.32 ± 0.15 and the “self-splicing fitness (ln)” value (37 °C) was -3.44 ± 0.26.

On to GUCCAGCAAUAUUACGACGA, for which the “self-splicing fitness (ln)” value is -2.69 ± 0.12 (30 °C) and -0.712 ± 0.091 (37 °C).

In the case of GUUUAGCAAUAUUACGCCUU, the “self-splicing fitness (ln)” value is, setting by setting: (30 °C) -1.21 ± 0.17; (37 °C) -0.678 ± 0.21.

CGCGAGCAAUAUUACGCUGC: for the setting “30 °C”, the “self-splicing fitness (ln)” value was -2.91 ± 0.28.

As for UCGUAGCAAUAUUACGGUUA, the “self-splicing fitness (ln)” value by setting is: (30 °C) -1.39 ± 0.15; (37 °C) -0.71 ± 0.12.

Turning to GCAGAGCAAUAUUACGUCGU, the “self-splicing fitness (ln)” value (30 °C) was -2.88 ± 0.18 and the “self-splicing fitness (ln)” value (37 °C) was -0.722 ± 0.16.

In the case of AAUGAGCAAUAUUACGUGGC, the “self-splicing fitness (ln)” value by setting is: (30 °C) -2.82 ± 0.15; (37 °C) -2.7 ± 0.2.

Turning to CCCCAGCAAUAUUACGCACU, the “self-splicing fitness (ln)” value reads like this: (30 °C) -4.21 ± 0.33; (37 °C) -2.68 ± 0.22.

These data come from the supplement of paper PMC7877785.
